Target: T1, human DUBA polypeptide (human, UniProt Q96G74 1-571)
T1 construct: Used for endogenous DUBA of HEK293 and TLR3/293 cells and for human DUBA in transfected cells (Western blot with the hamster antibodies); also called OTUD5; OTU domain containing 5
T1 sequence: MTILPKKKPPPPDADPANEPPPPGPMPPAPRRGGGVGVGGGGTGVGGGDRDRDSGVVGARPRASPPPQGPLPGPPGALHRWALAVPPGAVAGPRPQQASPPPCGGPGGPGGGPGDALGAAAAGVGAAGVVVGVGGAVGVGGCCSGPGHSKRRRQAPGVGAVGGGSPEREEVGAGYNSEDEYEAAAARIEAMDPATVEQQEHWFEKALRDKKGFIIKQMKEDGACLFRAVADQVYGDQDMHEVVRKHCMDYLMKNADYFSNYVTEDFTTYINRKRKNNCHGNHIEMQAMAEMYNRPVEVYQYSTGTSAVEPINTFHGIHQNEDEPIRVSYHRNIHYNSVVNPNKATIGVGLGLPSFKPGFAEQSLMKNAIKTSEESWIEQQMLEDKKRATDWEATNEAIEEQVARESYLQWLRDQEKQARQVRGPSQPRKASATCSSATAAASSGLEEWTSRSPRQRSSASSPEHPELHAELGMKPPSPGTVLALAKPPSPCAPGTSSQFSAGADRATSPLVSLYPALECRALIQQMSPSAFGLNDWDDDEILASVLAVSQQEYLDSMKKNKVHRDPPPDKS
Test: anti-DUBA immunoprecipitation from TLR3/293 lysates at 0, 60 and 180 minutes, anti-TRAF3 Western blot

binding result: binds
B1: endogenous TRAF3 (enzyme, UniProt Q13114 1-568, looked up)
chain: MESSKKMDSPGALQTNPPLKLHTDRSAGTPVFVPEQGGYKEKFVKTVEDKYKCEKCHLVLCSPKQTECGHRFCESCMAALLSSSSPKCTACQESIVKDKVFKDNCCKREILALQIYCRNESRGCAEQLMLGHLLVHLKNDCHFEELPCVRPDCKEKVLRKDLRDHVEKACKYREATCSHCKSQVPMIALQKHEDTDCPCVVVSCPHKCSVQTLLRSELSAHLSECVNAPSTCSFKRYGCVFQGTNQQIKAHEASSAVQHVNLLKEWSNSLEKKVSLLQNESVEKNKSIQSLHNQICSFEIEIERQKEMLRNNESKILHLQRVIDSQAEKLKELDKEIRPFRQNWEEADSMKSSVESLQNRVTELESVDKSAGQVARNTGLLESQLSRHDQMLSVHDIRLADMDLRFQVLETASYNGVLIWKIRDYKRRKQEAVMGKTLSLYSQPFYTGYFGYKMCARVYLNGDGMGKGTHLSLFFVIMRGEYDALLPWPFKQKVTLMLMDQGSSRRHLGDAFKPDPNSSSFKKPTGEMNIASGCPVFVAQTVLENGTYIKDDTIFIKVIVDTSDLPDP
notes: RING finger-type ubiquitin ligase; also called TNF receptor-associated factor (TRAF3)

Source: patent publication WO2008121813A2 (dated 2009)
